To fix the notation:
B1: Enoblituzumab (antibody, human IgG1, kappa, V domains shown)
VH: EVQLVESGGGLVQPGGSLRLSCAASGFTFSSFGMHWVRQAPGKGLEWVAYISSDSSAIYYADTVKGRFTISRDNAKNSLYLQMNSLRDEDTAVYYCGRGRENIYYGSRLDYWGQGTTVTVSS
VL: DIQLTQSPSFLSASVGDRVTITCKASQNVDTNVAWYQQKPGKAPKALIYSASYRYSGVPSRFSGSGSGTDFTLTISSLQPEDFATYYCQQYNNYPFTFGQGTKLEIKR
B2: MGC-018 (antibody, human IgG1, kappa, V domains shown)
VH: EVQLVESGGGLVKPGGSLRLSCAASGFTFSSYGMSWVRQAPGKGLEWVATINSGGSNTYYPDSLKGRFTISRDNAKNSLYLQMNSLRAEDTAVYYCARHDGGAMDYWGQGTTVTVSS
VL: DIQMTQSPSSLSASVGDRVTITCRASESIYSYLAWYQQKPGKAPKLLVYNTKTLPEGVPSRFSGSGSGTDFTLTISSLQPEDFATYYCQHHYGTPPWTFGQGTRLEIKR
B3: hz17A3-14 (antibody, human IgG1, kappa, V domains shown)
VH: EVQLVQSGAEVKKPGASVKVSCKASGYTFTDYALHWVRQAPGQGLEWMGLINTYSSNTNYNQKFKDRVTMTRDTSISTAYMELSRLRSEDTAVYYCARGITAVVGTRYYAMDYWGQGTLVTVSS
VL: EIVLTQSPGTLSLSPGERATLSCRASQSISNNLHWYQQKPGQAPRLLIKYTSQSISGIPDRFSGSGSGTDFTLTISRLEPEDFAVYYCQQSYSWPLTFGGGTKVEIKR
B4: ch9B11 (antibody, human IgG1, V domains shown)
VH: EVQLQQSGPELVRPGVSVKISCKGSGYSFTDYAIHWVKQSHAMSLEWIGIINTYYGNTNYNQKFKGKATMTVDKSSSTAYMELARLTSADSAIYYCARSTTTATFYWYFDVWGAGTTVSVSS
VL: DIVLTQSPVTLSVTPGDSVSLSCRASQSINNNLHWYQQKPHESPRLLIKYASQSISGIPSRFSGSGSGTDFTLSFNSVETEDFGMYFCQQSHSWPYTFGGGTKLEIK
B5: ch17A3 (antibody, human IgG1, V domains shown)
VH: QVQLQQSGPELVRPGVSVKISCKGSGYTFTDYALHWVKQSHAKSPQWIGLINTYSSNTNYNQKFKDKATMTVDKSSSTAYMELARLTSEDSAIYYCARGITAVVGTRYYAMDYWGQGTSVTVSS
VL: NIVLTQSPTTLSVTPGDTVSLSCRASQSISNNLHWYQQRSHESPRLIIKYTSQNISGIPSRFSGSGSGTDFTLSINSVETEDFGMYFCQQSYSWPLTFGAGTKLELKR
B6: ch10B4 (antibody, human IgG1, V domains shown)
VH: EVQLQQSGPELVKPGASVKISCKTSGYTFTEYIMHWVKQSHGKSLEWIGGINPNNGGTTYNQKFKGKATLTVDKSSSTAYMELRSLTSEDSAVYYCARKGKDYFDWYFDVWGAGTTVTVSS
VL: QIVLTQSPTIMSASPGEKVTMTCSASSSVSYMHWYQQKSGTSPKRWIYDTSKLASGVPARFSGSGSGTSYSLTISSMEAEDAATYYCQQWSSNPLTFGAGTKLELK

The target in the first test is human B7-H3 naturally expressed on the surface of tumor cells (human) (UniProt Q5ZPR3). As to the kind of experiment: FACS on SKVO3 cells.
Sequence of human B7-H3 naturally expressed on the surface of tumor cells (human) (Q5ZPR3 29-534): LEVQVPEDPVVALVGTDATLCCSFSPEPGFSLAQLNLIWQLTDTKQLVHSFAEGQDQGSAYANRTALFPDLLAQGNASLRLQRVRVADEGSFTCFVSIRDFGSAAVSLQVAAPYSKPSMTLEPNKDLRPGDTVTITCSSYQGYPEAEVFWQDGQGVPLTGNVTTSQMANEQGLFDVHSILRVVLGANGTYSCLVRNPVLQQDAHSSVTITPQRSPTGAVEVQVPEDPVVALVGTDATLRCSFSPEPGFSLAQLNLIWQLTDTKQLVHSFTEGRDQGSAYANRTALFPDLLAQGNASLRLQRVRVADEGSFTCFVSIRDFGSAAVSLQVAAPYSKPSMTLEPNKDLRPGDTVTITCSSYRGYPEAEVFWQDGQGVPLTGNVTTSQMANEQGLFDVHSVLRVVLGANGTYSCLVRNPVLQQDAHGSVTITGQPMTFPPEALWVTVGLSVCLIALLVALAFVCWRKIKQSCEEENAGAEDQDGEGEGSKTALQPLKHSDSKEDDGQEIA
For the molecule B1, the EC50 was 0.191 µg/mL.
B2 returned an EC50 of 0.0565 µg/mL.
On to B3, for which the 50% effective concentration (EC50) is 0.0441 µg/mL.

Another test shares this target. As to the kind of experiment: FACS on A431 cells.
In turn, B1 gave an EC50 of 0.374 µg/mL.
B4 came in with an EC50 of 0.137 µg/mL.
In the case of B5, the concentration giving a half-maximal response (EC50) is 0.101 µg/mL.
The same measure, in the same setting: as for B6, the figure is 0.203 µg/mL.

In general, EC50 refers to the concentration that produces a half-maximal response. A high value points to a less potent agent.

Source of the values: patent US20250269047A1.
